Laboratory results published in FireProtDB (doi:10.1016/s0167-4838(98)00243-x).

Conditions: Streptomyces sp. (strain N174), pH 7, Thermal, sodium phosphate 50 mM, whole UniProt chain shown
[1] = CD, transition: 3, reversible: yes(85%)
[2] = Fluorescence, reversible: yes(75%)

B1: Chitosanase wild type, P33665 (protein)
chain: MHSQHRTARIALAVVLTAIPASLATAGVGYASTQASTAVKAGAGLDDPHKKEIAMELVSSAENSSLDWKAQYKYIEDIGDGRGYTGGIIGFCSGTGDMLELVQHYTDLEPGNILAKYLPALKKVNGSASHSGLGTPFTKDWATAAKDTVFQQAQNDERDRVYFDPAVSQAKADGLRALGQFAYYDAIVMHGPGNDPTSFGGIRKTAMKKARTPAQGGDETTYLNAFLDARKAAMLTEAAHDDTSRVDTEQRVFLKAGNLDLNPPLKWKTYGDPYVINS
Tm [1]: 42.7 °C
unfolding enthalpy (van 't Hoff) [1]: 120 kcal/mol
Tm [2]: 43.2 °C
unfolding enthalpy (van 't Hoff) [2]: 161 kcal/mol
